Test results from PMC5451212, “RISC-interacting clearing 3’- 5’ exoribonucleases (RICEs) degrade uridylated cleavage fragments to maintain functional RISC in Arabidopsis thaliana” (eLife, 2017).
Where “and” joins values, the source holds several entries; their conditions need not be identical. Identical values can stand only once.

Experiments:
[1] = target: the molecule itself; experiment: SEC; purified proteins after SUMO protease cleavage on Superdex75 (1.6 x 60), 20 mM Tris-HCl pH 7.5, 150 mM NaCl
[2] = target: the molecule itself; experiment: crystal structure; RICE1 at 20 mg/ml, hanging drop at 16°C, ~30% pentaerythritol propoxylate (5/4 PO/OH), 0.2 M KCl, 50 mM HEPES pH 7.5; space group I4(1)22, three molecules in the asymmetric unit
[3] = target: the molecule itself; experiment: SEC; purified RICE1 D114A on Hiload 16/600 Superdex 200 instead of the routinely used Superdex 75
6His-SUMO-RICE2 = target: T1, 6His-SUMO-RICE2 (A. thaliana, UniProt Q9FNG3 1-206); experiment: pull-down; His-SUMO baits and MBP-fusion preys purified from E. coli; prey preabsorbed on Ni-NTA resin, then incubated with bait 1 hr at room temperature and captured on Ni-NTA; 50 mM Tris pH 7.5, 150 mM NaCl, 0.2% glycerol, 0.6% Triton X-100, 0.5 mM β-mercaptoethanol; six washes with 300 mM NaCl; blot with anti-MBP; details: both partners purified
T1 construct: RICE2 (At5g06450; AtDECP), A. thaliana; open reading frame in pET28a-SUMO-DC; also called AtDECP; source: E. coli BL21 (DE3), purified (Ni-NTA); not shown: His6, N-terminal, kept; SUMO, N-terminal, kept
T1 sequence (looked up): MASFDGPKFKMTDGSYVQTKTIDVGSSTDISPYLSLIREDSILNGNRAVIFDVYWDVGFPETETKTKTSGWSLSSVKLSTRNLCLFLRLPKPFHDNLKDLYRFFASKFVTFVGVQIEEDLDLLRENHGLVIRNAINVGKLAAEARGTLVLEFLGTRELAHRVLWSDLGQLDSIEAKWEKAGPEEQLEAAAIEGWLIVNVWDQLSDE

6His-SUMO-RICE1 = target: T2, 6His-SUMO-RICE1 (A. thaliana, UniProt Q9SF21 1-200); experiment: as above; details: both partners purified
T2 construct: RICE1 (At3g11770), A. thaliana; open reading frame in pET28a-SUMO-DC; source: E. coli BL21 (DE3), purified (Ni-NTA); not shown: His6, N-terminal, kept; SUMO, N-terminal, kept
T2 sequence (looked up): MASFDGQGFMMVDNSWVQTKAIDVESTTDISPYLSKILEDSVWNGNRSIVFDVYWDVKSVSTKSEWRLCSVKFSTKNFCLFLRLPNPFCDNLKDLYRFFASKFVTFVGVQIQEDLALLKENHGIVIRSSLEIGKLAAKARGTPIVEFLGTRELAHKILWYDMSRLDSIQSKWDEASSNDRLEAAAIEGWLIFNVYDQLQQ

B1: RICE1, purified recombinant (SUMO tag cleaved) (enzyme, A. thaliana, UniProt Q9SF21 1-200, looked up)
chain: MASFDGQGFMMVDNSWVQTKAIDVESTTDISPYLSKILEDSVWNGNRSIVFDVYWDVKSVSTKSEWRLCSVKFSTKNFCLFLRLPNPFCDNLKDLYRFFASKFVTFVGVQIQEDLALLKENHGIVIRSSLEIGKLAAKARGTPIVEFLGTRELAHKILWYDMSRLDSIQSKWDEASSNDRLEAAAIEGWLIFNVYDQLQQ
notes: RICE1 (At3g11770), A. thaliana; full-length cDNA in pET28a-SUMO (BamHI/SacI); also called wild type RICE1; source: E. coli BL21 (DE3), purified (Ni-NTA, SUMO protease cleavage, SEC); not shown: His6, N-terminal, cleaved; SUMO, N-terminal, cleaved
stoichiometry N [1]: ~6
stoichiometry N [2]: 6

B2: RICE1 D114A, purified recombinant (enzyme, A. thaliana, UniProt Q9SF21 1-200, looked up)
chain: MASFDGQGFMMVDNSWVQTKAIDVESTTDISPYLSKILEDSVWNGNRSIVFDVYWDVKSVSTKSEWRLCSVKFSTKNFCLFLRLPNPFCDNLKDLYRFFASKFVTFVGVQIQEALALLKENHGIVIRSSLEIGKLAAKARGTPIVEFLGTRELAHKILWYDMSRLDSIQSKWDEASSNDRLEAAAIEGWLIFNVYDQLQQ
notes: RICE1 (At3g11770), A. thaliana; point mutant made on pET28a-SUMO-RICE1; source: E. coli BL21 (DE3), purified (Ni-NTA, SUMO protease cleavage, SEC); not shown: His6, N-terminal, cleaved; SUMO, N-terminal, cleaved
stoichiometry N [3]: 2 and 6

B3: MBP-AGO10 PAZ (337-474) (domain or fragment, A. thaliana, UniProt Q9XGW1 337-474, looked up)
chain: LPVIEFVAQLLGKDVLSKPLSDSDRVKIKKGLRGVKVEVTHRANVRRKYRVAGLTTQPTRELMFPVDENCTMKSVIEYFQEMYGFTIQHTHLPCLQVGNQKKASYLPMEACKIVEGQRYTKRLNEKQITALLKVTCQR
notes: AGO10, A. thaliana, residues 337-474 (PAZ); source: E. coli BL21 (DE3), purified (amylose resin); not shown: MBP, N-terminal, kept
binding result (6His-SUMO-RICE2): binds
binding result (6His-SUMO-RICE1): binds
